Assay [1] has as its target T1, CLDN18.2.
T1 construct: For the EC50 it stood on overexpressing cells; also called claudin18.2; CLDN18.2过表达细胞
In words: kinetics, method not stated.

In assay [2] the target is T1, CLDN18.2. In words: flow cytometry on CLDN18.2-overexpressing cells, MFI fitted in GraphPad Prism. A general note: A flow cytometer gives signals particle by particle.

B1: IMAB362 (antibody, V domains shown)
VH: QVQLQQPGAELVRPGASVKLSCKASGYTFTSYWINWVKQRPGQGLEWIGNIYPSDSYTNYNQKFKDKATLTVDKSSSTAYMQLSSPTSEDSAVYYCTRSWRGNSFDYWGQGTTLTVSS
VL: DIVMTQSPSSLTVTAGEKVTMSCKSSQSLLNSGNQKNYLTWYQQKPGQPPKLLIYWASTRESGVPDRFTGSGSGTDFTLTISSVQAEDLAVYYCQNDYSYPFTFGSGTKLEIKR
The term Kd denotes a measure of binding affinity in units of concentration. A low value points to tighter binding. In general, koff refers to the rate constant with which the complex falls apart. A lower koff goes with slow dissociation. Usually kon stands for the second-order rate constant of association. Broadly, the EC50 is the concentration that produces a half-maximal response. As for B1, in the assay with CLDN18.2 [1], binding was characterised by a dissociation constant (Kd) of 4.17 nM, the dissociation rate constant (koff) stood at 0.00158 s⁻¹ and the kon turned out to be 378000 M⁻¹ s⁻¹. The molecule also showed a concentration for a half-maximal effect (EC50) with CLDN18.2 [2] of 1.75 µg/mL.

B2: CLDN-BC-P1022-hH1 (antibody, V domains shown)
VH: QVQLVQSGGGLVQPGGSLRLSCAASGFTFSSYEMNWVRQAPGKGLEWVAYITGSGRTMYYADSVKGRITISRDNAKNSLYLQMNSLRAEDTAVYYCARYWNYAGGMDVWGQGTLVTVSS
VL: DIQMTQSPSSVSASVGDRVTITCRASQGISSWLAWYQQKPGKAPKLLIYAASSLQSGVPSRFSGSGSGTDFTLTISSLQPEDFATYYCQQANSFPLTFGGGTKVEIK
notes: detected with anti-human IgG Fc); P1022 is the only antibody of the application; also called CLN-P1022-hH1; 全人源抗体P1022
For B2, the 50% effective concentration (EC50) in the assay with CLDN18.2 [2] was 0.12 µg/mL.

The record behind these values is CN117567612A (CHINA RESOURCES BIOMEDICAL CO LTD, dated 2024).
